Data: publication PMC13045352, “Mapping Epidermal Growth Factor Receptor‑1 Sorting Domains in Endosomes with a Calibrated Three-Dimensional Expansion Microscopy Toolkit” (ACS Nano, 2026)

Molecular target: the molecule itself
Test: negative-stain transmission electron microscopy; purified nanocages on glow-discharged carbon film-coated grids, stained with uranyl formate; particle widths measured (mean 28.3 nm)

B1: I3-01_60eGFP monomer of the self-assembling 60-subunit nanocage (one N-terminal eGFP per subunit) (other)
chain: GSGGSGGSGGSGGSGKIEELFKKHKIVAVLRANSVEEAKKKALAVFLGGVHLIEITFTVPDADTVIKELSFLKEMGAIIGAGTVTSVEQCRKAVESGAEFIVSPHLDEEISQFCKEKGVFYMPGVMTPTELVKAMKLGHTILKLFPGEVVGPQFVKAMKGPFPNVKFVPTGGVNLDNVCEWFKAGVLAVGVGSALVKGTPVEVAEKAKAFVEKIRGCTEGSGSGSGSGS
notes: linker between the vector's eGFP and I3-01; begins with the BamHI site GGATCC; I3-01 designed nanocage subunit (David Baker's laboratory); C-terminal linker before the stop codon; Printed molecular weight of the monomer 55.72 kDa; also called 60mer decahedral nanocage; source: HeLa cells, transfected, purified from lysate (centrifugation, 1 MDa spin concentrator); also expressed in RPE-1 cells; …
B1: binds.
